The values below come from IntAct's records for PubMed 24292623.

The chains are these.
B1: Zinc finger protein Aiolos (Homo sapiens), Q9UKT9 (parent)
chain: MEDIQTNAELKSTQEQSVPAESAAVLNDYSLTKSHEMENVDSGEGPANEDEDIGDDSMKVKDEYSERDENVLKSEPMGNAEEPEIPYSYSREYNEYENIKLERHVVSFDSSRPTSGKMNCDVCGLSCISFNVLMVHKRSHTGERPFQCNQCGASFTQKGNLLRHIKLHTGEKPFKCHLCNYACQRRDALTGHLRTHSVEKPYKCEFCGRSYKQRSSLEEHKERCRTFLQSTDPGDTASAEARHIKAEMGSERALVLDRLASNVAKRKSSMPQKFIGEKRHCFDVNYNSSYMYEKESELIQTRMMDQAINNAISYLGAEALRPLVQTPPAPTSEMVPVISSMYPIALTRAEMSNGAPQELEKKSIHLPEKSVPSERGLSPNNSGHDSTDTDSNHEERQNHIYQQNHMVLSRARNGMPLLKEVPRSYELLKPPPICPRDSVKVINKEGEVMDVYRCDHCRVLFLDYVMFTIHMGCHGFRDPFECNMCGYRSHDRYEFSSHIARGEHRALLK
B2: DNA-binding protein Ikaros (Homo sapiens), Q13422-1 (parent)
chain: MDADEGQDMSQVSGKESPPVSDTPDEGDEPMPIPEDLSTTSGGQQSSKSDRVVASNVKVETQSDEENGRACEMNGEECAEDLRMLDASGEKMNGSHRDQGSSALSGVGGIRLPNGKLKCDICGIICIGPNVLMVHKRSHTGERPFQCNQCGASFTQKGNLLRHIKLHSGEKPFKCHLCNYACRRRDALTGHLRTHSVGKPHKCGYCGRSYKQRSSLEEHKERCHNYLESMGLPGTLYPVIKEETNHSEMAEDLCKIGSERSLVLDRLASNVAKRKSSMPQKFLGDKGLSDTPYDSSASYEKENEMMKSHVMDQAINNAINYLGAESLRPLVQTPPGGSEVVPVISPMYQLHKPLAEGTPRSNHSAQDSAVENLLLLSKAKLVPSEREASPSNSCQDSTDTESNNEEQRSGLIYLTNHIAPHARNGLSLKEEHRAYDLLRAASENSQDALRVVSTSGEQMKVYKCEHCRVLFLDHVMYTIHMGCHGFRDPFECNMCGYHSQDRYEFSSHITRGEHRFHMS

In one assay the parent is B1. As to conditions: with crbn_human CRBN.
Consider Q147H, for which the “effect of a mutation on the interaction” value was “decreasing interaction strength”.

In a further assay the parent is B2. The note with it: with crbn_human CRBN.
Regarding Q146H, the “effect of a mutation on the interaction” value is given as “decreasing interaction strength”.
